{"source": "patent US20210396761A1", "about": "(AICURIS, published 2021)", "binders": {"B1": {"name": "VZV Orf27, C-terminally fused to the Flag epitope (pcDNA-Orf27-Flag, pHM4696) (other)", "chain": "MHLKPTRFFHANQPPMPHSYEMEDLCFDDMQYRWSPSNTPYRSMSRRYKSVSRSGPSMRVRSRTPCRRQTIRGKLMSKERSVYRHYFNYIARSPPEELATVRGLIVPIIKTTPVTLPFNLGQTVADNCLSLSGMGYHLGLGGYCPTCTASGEPRLCRTDRAALILAYVQQLNNIYEYRVFLASILALSDRANMQAASAEPLLSSVLAQPELFFMYHIMREGGMRDIRVLFYRDGDAGGFMMYVIFPGKSVHLHYRLIDHIQAACRGYKIVAHVWQTTFLLSVCRNPEQQTETVVPSIGTSDVYCKMCDLNFDGELLLEYKRLYALFDDFVPPRDYKDDDDK"}, "B2": {"name": "EBV BFLF2, C-terminally fused to the Flag epitope (pcDNA-BFLF2-Flag, pHM4698) (other)", "chain": "MAPVTPDAVNARQQRPADPALRRLMHPHHRNYTASKASAHSVKSVSRCGKSRSELGRMERVGSVARSICSRHTRHGVDRSHFSLRDFFRGISANFELGKDFLREMNTPIHVSEAVFLPLSLCTLSPGRCLRLSPFGHSLTLGSHCEICINRSQVHVPQEFSSTQLSFFNNVHKIIPNKTFYVSLLSSSPSAVKAGLSQPSLLYAYLVTGHFCGTICPIFSTNGKGRLIMHLLLQGTSLHIPETCLKLLCENIGPTYELAVDLVGDAFCIKVSPRDTVYEKAVNVDEDAIYEAIKDLECGDELRLQIINYTQLILENKQDYKDDDDK", "notes": "also called Flag-tagged BFLF2"}, "B3": {"name": "pUL53 (50-292) (other)", "chain": "PSPADARPRLTLHDLHDIFREHPELELKYLNMMKMAITGKESICLPFNFHSHRQHTCLDISPYGNEQVSRIACTSCEDNRILPTASDAMVAFINQTSNIMKNRNFYYGFCKSSELLKLSTNQPPIFQIYYLLHAANHDIVPFMHAEDGRLHMHVIFENPDVHIPCDCITQMLTAAREDYSVTLNIVRDHVVISVLCHAVSASSVKIDVTILQRKIDEMDIPNDVSESFERYKELIQELCQSSG"}, "B4": {"name": "His-tagged pUL50 (HCMV groove protein, soluble recombinant) (other)", "chain": "MEMNKVLHQDLVQATRRILKLGPSELRVTDAGLICKNPNYSVCDAMLKTDTVYCVEYLLSYWESRTDHVPCFIFKNTGCAVSLCCFVRAPVKLVSPARHVGEFNVLKVNESLIVTLKDIEEIKPSAYGVLTKCVVRKSNSASVFNIELIAFGPENEGEYENLLRELYAKKAASTS", "notes": "also called His-tagged groove protein"}, "B5": {"name": "VZV Orf24, C-terminally fused to the HA epitope (pcDNA-Orf24-HA, pHM4695) (other)", "chain": "MSRRTYVRSERRRGCGDNLLQRIRLVVPSALQCCDGDLPIFDPQRPPARCVFQFNGEDNVSEAFPVEYIMRLMANWAQVDCDPYIKIQNTGVSVLFQGFFFRPTNAPVAEVSIDSNNVILSSTLSTGINLSALESIKRGGGIDRRPLQALMWVNCFVRMPYVQLSFRFMGPEDPSRTIKLMARATDAYMYKETGNNLDEYIRWRPSFRSPPENGSPNTSVQMQSDIKPALPDTQTTRVWKLALPVANVTYALFIVIVLVVVLGAVLFWK"}, "B6": {"name": "His-tagged BFRF1 (EBV groove protein, soluble recombinant) (other)", "chain": "MASPEERLLDELNNVIVSFLCDSGSLEVERCSGAHVFSRGSSQPLCTVKLRHGQIYHLEFVYKFLAFKLKNCNYPSSPVFVISNNGLATTLRCFLHEPSGLRSGQSGPCLGLSTDVDLPKNSIIMLGQDDFIKFKSPLVFPAELDLLKSMVVCRAYITEHRTTMQFLVFQAANAQKASRVMDMISDMSQQLS", "notes": "as for B4"}, "B7": {"name": "HCMV pUL53, C-terminally fused to the Flag epitope (pcDNA-UL53-Flag, pHM2590) (other)", "chain": "MSSVSGVRTPRERRSALRSLLRKRRQRELASKVASTVNGATSANNHGEPPSPADARPRLTLHDLHDIFREHPELELKYLNMMKMAITGKESICLPFNFHSHRQHTCLDISPYGNEQVSRIACTSCEDNRILPTASDAMVAFINQTSNIMKNRNFYYGFCKSSELLKLSTNQPPIFQIYYLLHAANHDIVPFMHAEDGRLHMHVIFENPDVHIPCDCITQMLTAAREDYSVTLNIVRDHVVISVLCHAVSASSVKIDVTILQRKIDEMDIPNDVSESFERYKELIQELCQSSGNNLYEEATSSYAIRSPLTASPLHVVSTNGCGPSSSSQSTPPHLHPPSQATQPHHYSHHQSQSQQHHHRPQSPPPPLFLNSIRAPDYKDDDDK", "notes": "also called pUL53-Flag; Flag-tagged pUL53"}, "B8": {"name": "EBV BFRF1, C-terminally fused to the HA epitope (pcDNA-BFRF1-HA, pHM4697) (other)", "chain": "MASPEERLLDELNNVIVSFLCDSGSLEVERCSGAHVFSRGSSQPLCTVKLRHGQIYHLEFVYKFLAFKLKNCNYPSSPVFVISNNGLATTLRCFLHEPSGLRSGQSGPCLGLSTDVDLPKNSIIMLGQDDFIKFKSPLVFPAELDLLKSMVVCRAYITEHRTTMQFLVFQAANAQKASRVMDMISDMSQQLSRSGQVEDTGARVTGGGGPRPGVTHSGCLGDSHVRGRGGWDLDNFSEAETEDEASYAPWRDKDSWSESEAAPWKKELVRHPIRRHRTRETRRMRGSHSRVEHVPPETRETVVGGAWRYSWRATPYLARVLAVTAVALLLMFLRWT", "notes": "also called EBC BFRF1-HA; HA-tagged BFRF1"}}, "key": {"[1]": {"biological_target": "T1, His-tagged pUL50 (HCMV groove protein, soluble recombinant) (human cytomegalovirus (HCMV)), P16791", "T1 chain": "B4 chain", "test": "competitive ELISA, inhibition of His-tagged pUL50 binding to coated pUL53"}, "[2]": {"biological_target": "T2, HCMV pUL50, C-terminally fused to the HA epitope (pcDNA-UL50-HA, pHM2589) (human cytomegalovirus (HCMV) strain …, UniProt P16791 1-397)", "T2 sequence": "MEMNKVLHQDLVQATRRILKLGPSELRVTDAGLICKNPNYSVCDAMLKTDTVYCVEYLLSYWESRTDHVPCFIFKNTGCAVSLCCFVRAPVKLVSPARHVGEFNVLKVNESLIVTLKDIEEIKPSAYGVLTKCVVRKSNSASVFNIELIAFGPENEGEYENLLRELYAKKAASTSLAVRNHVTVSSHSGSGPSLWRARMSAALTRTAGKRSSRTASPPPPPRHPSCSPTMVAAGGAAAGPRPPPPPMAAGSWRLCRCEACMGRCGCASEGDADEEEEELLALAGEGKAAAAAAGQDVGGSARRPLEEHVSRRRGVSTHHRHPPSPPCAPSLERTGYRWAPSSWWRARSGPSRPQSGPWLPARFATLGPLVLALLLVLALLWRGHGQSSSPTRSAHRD", "test": "coimmunoprecipitation, transiently transfected 293T cells"}, "[3]": {"biological_target": "B8", "test": "coimmunoprecipitation, transiently transfected 293T cells"}, "[4]": {"biological_target": "the molecule itself", "test": "analytical size exclusion chromatography, self-association"}, "[5]": {"biological_target": "T3, pUL53 (HCMV hook protein, soluble recombinant) (human cytomegalovirus (HCMV), UniProt P16794 50-292)", "T3 sequence": "B3 chain", "test": "direct ELISA, comparison of EC50 values"}, "[6]": {"biological_target": "T3, pUL53 (HCMV hook protein, soluble …)", "test": "direct ELISA, pUL53 coated, His-tagged pUL50 in serial dilutions, anti-His-HRP"}, "[7]": {"biological_target": "B7", "test": "coimmunoprecipitation, transiently transfected 293T cells"}, "[8]": {"biological_target": "B1", "test": "coimmunoprecipitation, transiently transfected 293T cells"}, "[9]": {"biological_target": "T4, BFLF2 (EBV hook protein, soluble recombinant) (Epstein-Barr virus (EBV), UniProt P0CK47 78-318)", "T4 sequence": "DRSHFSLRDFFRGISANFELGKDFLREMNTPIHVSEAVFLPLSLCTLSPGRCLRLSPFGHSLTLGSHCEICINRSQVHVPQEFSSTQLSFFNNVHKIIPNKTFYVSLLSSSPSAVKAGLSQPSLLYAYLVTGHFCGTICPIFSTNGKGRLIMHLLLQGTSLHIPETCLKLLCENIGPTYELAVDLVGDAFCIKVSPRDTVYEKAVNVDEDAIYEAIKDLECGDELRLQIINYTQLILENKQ", "test": "direct ELISA, BFLF2 coated, His-tagged BFRF1 in serial dilutions, anti-His-HRP"}}, "note": "Non-standard residues stand in square brackets, D forms with d. *: point of attachment. Bio = O=C1N[C@H]2[C@H](CS[C@H]2CCCCC(=O)*)N1; Aoa = not defined here"}
{"binder": "LTLHDLHDIFREHPELELKYLNMMKMAITK (modifications not checked)", "note": "[HCMV hook peptide (Ac-pUL53 59-87-Aoa-Lys(Bio)-NH2)]", "values": [{"measurement": "IC50", "setting": "[1]", "result": 114, "unit": "nM"}]}
{"binder": "B1", "values": [{"measurement": "binding result", "setting": "[2]", "result": "no binding"}]}
{"binder": "B2", "values": [{"measurement": "binding result", "setting": "[2]", "result": "no binding"}, {"measurement": "binding result", "setting": "[3]", "result": "binds"}]}
{"binder": "Ac-SHFSLRDFFRGISANFELGKDFLREMNTP[Aoa]K(Bio)-NH2 (reading uncertain)", "note": "[EBV hook peptide (Ac-BFLF2 80-108-Aoa-Lys(Bio)-NH2)]", "values": [{"measurement": "IC50", "setting": "[1]", "result": 2600, "unit": "nM"}, {"measurement": "fold lower inhibitory activity than the HCMV hook peptide", "setting": "[1]", "result": 22, "unit": "fold"}]}
{"binder": "B3", "values": [{"measurement": "binding result", "setting": "[4]", "result": "binds"}]}
{"binder": "B4", "values": [{"measurement": "fold stronger than the BFRF1-BFLF2 interaction of EBV", "setting": "[5]", "result": "~20", "unit": "fold"}, {"measurement": "EC50", "setting": "[6]", "result": 6.2, "unit": "nM"}]}
{"binder": "B5", "values": [{"measurement": "binding result", "setting": "[7]", "result": "no binding"}, {"measurement": "binding result", "setting": "[8]", "result": "binds"}]}
{"binder": "B6", "values": [{"measurement": "EC50", "setting": "[9]", "result": 122, "unit": "nM"}]}
{"binder": "B7", "values": [{"measurement": "binding result", "setting": "[2]", "result": "binds"}]}
{"binder": "B8", "values": [{"measurement": "binding result", "setting": "[7]", "result": "no binding"}]}
